The source of these data is paper PMC8863222.

This assay concerns the target recombinant equine Keap1, GST-tagged, biotinylated (equine) (UniProt F6VZG9). Description: BLI; biotinylated Keap1 (65 μg/ml) loaded on streptavidin-coated biosensors; various concentrations of Rev or Nrf2 in PBST (PBS, 0.1 mg/ml BSA, 0.002% Tween 20, pH 7.2); room temperature; Octet Red. Background: BLI is a label-free optical method that tracks binding on a fibre tip over time.

Take “recombinant EIAV Rev, MBP-tagged (natural protein)”: the Kd was 494 nM.

As to “recombinant equine Nrf2, His-tagged (natural protein)”, the equilibrium dissociation constant (Kd) was found to be 400 nM.

For orientation: Kd means the equilibrium constant for the complex coming apart.
